We go through one protein from article PMC10853775 (Nucleic Acids Research, 2023).

The data set deals with the molecule itself. Description: crystal structure.

B1: human nucleoside diphosphate kinase (NDPKb) (enzyme)
chain: ANLERTFIAIKPDGVQRGLVGEIIKRFEQKGFRLVAMKFLRASEEHLKQHYIDLKDRPFFPGLVKYMNSGPVVAMVWEGLNVVKTGRVMLGETNPADSKPGTIRGDFCIQVGRNIIHGSDSVKSAEKEISLWFKPEELVDYKSCAHDWVYE
On to B1, for which the stoichiometry N (in general, the number of molecules, sites or subunits per partner or assembly) was 6.
